{"source": "patent US20090227528A1", "about": "“Pulmonary administration of an antithrombotic compound” (priority 2004, published 2009)", "key": {"[1]": {"assay": "Comparative study between intravenous and intratracheal administration of Org 42675 (plasma concentration via anti-Xa activity, amidolytic S2222)", "format": "in vivo, male Wistar rats", "settings": "male, Wistar, rat; for AUC(0-inf) / AUC(0-t) / Cmax / bioavailability: 100 nmol/kg; for bioavailability: other: intratracheal, 100 nmol/kg intratracheal vs i.v. (100%), read-out: F (% bioavailabilty)", "experimental": "The test was carried out in male Wistar rats of 300-400 gr. The rats were anaesthetised by inhalation of a mixture of O2/N2O/isoflurane, after which the right jugular vein was cannulated. Translumination of the neck enabled visibility of the vocal cords and an oral needle was inserted when the vocal cords were open after which 100 μl/300 gr body weight of a solution prepared from the pharmaceutical formulation of Example 1, diluted with an aqueous 0.9% sodium chloride solution, containing 300 nmol of Org 42675/ml was instilled at approximately 1 cm before the bifurcation of the trachea. The same solution and dose was also used to perform the i.v. study. After i.v. administration blood was sampled at 1, 6, 15, 30 and 60 minutes and after 2, 4, 7 and 24 hours. After intra-tracheal administration blood was sampled at 0.5-1-2-4-7 and 24 hours after administration. Blood was centrifuged and the plasma was siphoned off and stored at −20° C. until use. The concentration of Org 42675 was measured amidolytically with S2222 (Chromogenix, Chromogenics Ltd, Molndal, Sweden) by determination of the anti-Xa activity based on the method of Teien and Lie in the obtained plasma samples against a calibration curve which was made of the stock solution of 300 nmol/ml itself. (Teien A N, Lie M. Evaluation of an amidolytic heparin assay method increased sensitivity by adding purified antithrombin III. Thromb. Res. 1977, 10: 399-410). The concentration in the samples was expressed in nmol/ml and the kinetic parameters were calculated with the noncompartment model of WinNonlin (see Tables 1 and 2). After intratracheal administration the maximum concentration was already obtained at 0.5 hour after administration which was also the first time point of blood collection."}, "[2]": {"settings": "rabbit, in vivo; cited from earlier work"}, "[3]": {"settings": "in vivo; cited from earlier work"}, "[4]": {"settings": "inhaled or intranasal, 100 nmol/kg intratracheal, individual rats"}, "[5]": {"settings": "inhaled or intranasal, 100 nmol/kg intratracheal, mean (n=3)"}, "[6]": {"settings": "iv, 100 nmol/kg intravenous, individual rats"}, "[7]": {"settings": "iv, 100 nmol/kg intravenous, mean (n=2)"}}, "note": "Where two headings read alike, the source gives them in different places.", "data": [{"compound": "COc1cc(C)c(S(=O)(=O)NC(CC(=O)NCCCC(=O)NCCOCCOCCOCCO[C@H]2[C@H](OC)[C@@H](OC)[C@@H](O[C@H]3[C@H](OC)[C@@H](OC)[C@H](O[C@H]4[C@H](OS(=O)(=O)O)[C@@H](OS(=O)(=O)O)[C@@H](O[C@H]5[C@H](OC)[C@@H](OC)[C@H](O[C@H]6[C@H](OC)[C@@H](OS(=O)(=O)O)[C@@H](OC)O[C@@H]6COS(=O)(=O)O)O[C@H]5C(=O)O)O[C@@H]4COS(=O)(=O)O)O[C@@H]3C(=O)O)O[C@@H]2COS(=O)(=O)O)C(=O)NC(Cc2ccc(C(=N)N)cc2)C(=O)N2CCCCC2)c(C)c1C", "note": "(stereo partly drawn) [Org 42675]", "values": [{"measurement": "Tmax", "setting": "[1]; [4]", "value": 30, "unit": "min"}, {"measurement": "AUC(0-inf)", "setting": "[1]; [4]", "value": 5.53, "unit": "µM·h"}, {"measurement": "AUC(0-t)", "setting": "[1]; [4]", "value": 5.4, "unit": "µM·h"}, {"measurement": "Cmax", "setting": "[1]; [4]", "value": 0.64, "unit": "µM"}, {"measurement": "AUC(0-inf)", "setting": "[1]; [5]", "value": "5.07 ± 0.24", "unit": "µM·h"}, {"measurement": "AUC(0-t)", "setting": "[1]; [5]", "value": 4.91, "unit": "µM·h"}, {"measurement": "Cmax", "setting": "[1]; [5]", "value": 0.77, "unit": "µM"}, {"measurement": "AUC(0-inf)", "setting": "[1]; [6]", "value": 8.46, "unit": "µM·h"}, {"measurement": "AUC(0-t)", "setting": "[1]; [6]", "value": 8.35, "unit": "µM·h"}, {"measurement": "Cmax", "setting": "[1]; [6]", "value": 3.18, "unit": "µM"}, {"measurement": "AUC(0-inf)", "setting": "[1]; [7]", "value": "7.32 ± 1.03", "unit": "µM·h"}, {"measurement": "AUC(0-t)", "setting": "[1]; [7]", "value": 7.32, "unit": "µM·h"}, {"measurement": "Cmax", "setting": "[1]; [7]", "value": 2.93, "unit": "µM"}, {"measurement": "bioavailability", "setting": "[1]; individual rats", "value": 75.5, "unit": "%"}, {"measurement": "bioavailability", "setting": "[1]; mean (n=3)", "value": "71 ± 3", "unit": "%"}]}, {"compound": "heparin", "values": [{"measurement": "bioavailability", "setting": "[2]", "value": "low"}, {"measurement": "pharmacokinetics", "setting": "[2]", "value": "poor"}, {"measurement": "Absolute bioavailability", "setting": "[3]", "value": "35-60%"}]}]}
